Assay results: patent US20130004522A1, “PHOTOTRIGGERED NANOPARTICLES FOR CELL AND TISSUE TARGETING” (priority 2009, published 2013)
Where no end group is shown, it is not given here. The star is where a group is joined. DMNB = 4,5-dimethoxy-2-nitrobenzyl photo-removable caging group, COc1cc(C*)c([N+](=O)[O-])cc1OC

What was measured:
integrin β1 = integrin β1 (Homo sapiens, UniProt P05556); conditions: previously shown; cited from earlier work
[1] = Un-caging of the caged peptide targeter in solution by HPLC-UV; type: physicochemical; conditions: ten seconds post illumination, retention time shifts to that of the non-caged targeter
Experimental: HPLC assays were performed on an HP 1100 HPLC system. Samples were injected in 50-μl volumes onto a C18 column. The column was eluted with an aqueous solution at 1 ml/min. The peptides were detected by a UV detector with absorbance wavelength set at 230 nm.
In order to determine the un-caging ability of the targeter (e.g., the peptide GGGGY(DMNB)IGSR—NH2 (SEQ ID NO: 2)) leading to its transformation to the active state, solutions of non-caged peptide (GGGGYIGSR-NH2) (SEQ ID NO: 2), or caged peptides subjected or not subjected to 1 min of illumination were evaluated by HPLC-UV. Retention time in the column of the non-caged targeter was ˜20 min (FIG. 3A) while that of the non-illuminated caged targeter was longer (˜30 min, FIG. 3B) due to the caging group existence which increases the hydrophobicity of the peptide. Ten seconds post illumination a shift in the retention time had occurred and the peptide had exited the column after ˜20 min (FIG. 3C).

integrin β1, sequence (P05556 21-798, species assumed): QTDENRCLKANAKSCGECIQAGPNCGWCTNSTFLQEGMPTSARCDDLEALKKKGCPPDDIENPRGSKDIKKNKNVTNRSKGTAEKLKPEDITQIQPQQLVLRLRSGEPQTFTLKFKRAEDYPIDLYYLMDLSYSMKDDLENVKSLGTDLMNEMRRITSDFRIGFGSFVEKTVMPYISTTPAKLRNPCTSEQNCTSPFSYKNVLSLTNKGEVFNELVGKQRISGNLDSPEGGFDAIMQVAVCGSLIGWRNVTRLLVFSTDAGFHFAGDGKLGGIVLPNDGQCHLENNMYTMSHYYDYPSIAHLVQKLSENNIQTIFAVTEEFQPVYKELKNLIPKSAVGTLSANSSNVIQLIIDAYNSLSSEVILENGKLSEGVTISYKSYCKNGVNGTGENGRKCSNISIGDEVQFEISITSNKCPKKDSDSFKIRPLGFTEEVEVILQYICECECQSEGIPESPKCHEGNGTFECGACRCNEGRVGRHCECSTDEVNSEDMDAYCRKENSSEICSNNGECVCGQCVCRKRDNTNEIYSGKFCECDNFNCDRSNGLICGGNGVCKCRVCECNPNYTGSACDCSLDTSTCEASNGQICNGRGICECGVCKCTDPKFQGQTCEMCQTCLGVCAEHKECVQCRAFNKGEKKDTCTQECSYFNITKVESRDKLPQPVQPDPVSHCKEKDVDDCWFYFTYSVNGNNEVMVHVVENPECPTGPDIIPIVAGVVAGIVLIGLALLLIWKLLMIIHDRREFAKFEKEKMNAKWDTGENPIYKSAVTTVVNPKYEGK

Row | Substance | cell adhesion and migration (integrin β1) | release of the caging group from the peptide after illumination [1]
1 | CDPGYIGSR | promote cell adhesion and migration | –
2 | GGGGY(DMNB)IGSR—NH2 (GGGGY(DMNB)IGSR-NH2; N-terminus assumed; SMILES CC[C@H](C)[C@H](NC(=O)[C@H](Cc1ccc(OCc2cc(OC)c(OC)cc2[N+](=O)[O-])cc1)NC(=O)CNC(=O)CNC(=O)CNC(=O)CN)C(=O)NCC(=O)N[C@@H](CO)C(=O)N[C@@H](CCCNC(=N)N)C(N)=O) | – | quick release of the caging group
3 | YIGSR-NH2 | promote cell adhesion and migration | –
